Laboratory results as given in patent US20230241113A1 (IMMATICS BIOTECHNOLOGIES, published 2023).

B1: altORF-059 (peptide)
peptide: VLPWQPLLL
notes: also called VLPWQPLLL
B2: altORF-066 (peptide)
peptide: KLLADAFKV
notes: also called KLLADAFKV
B3: altORF-064 (peptide)
peptide: ILNELLNSI
notes: also called ILNELLNSI
B4: altORF-065 (peptide)
peptide: ALKELMGPA
notes: also called ALKELMGPA
B5: AHNAK2-003 (peptide)
peptide: KLPEGHLPEV
notes: also called KLPEGHLPEV
B6: altORF-060 (peptide)
peptide: SLLGKPGLTI
notes: also called SLLGKPGLTI
B7: altORF-005 (peptide)
peptide: ALWEEVKATSL
notes: also called ALWEEVKATSL
B8: CIZ1-001 (peptide)
peptide: SLGPPPVGV
notes: also called SLGPPPVGV
B9: altORF-068 (peptide)
peptide: LLLQIEPAA
notes: also called LLLQIEPAA
B10: altORF-063 (peptide)
peptide: IAISQLTFV
notes: also called IAISQLTFV
B11: altORF-061 (peptide)
peptide: LSFKRSLSI
notes: also called LSFKRSLSI
B12: CDC2-006 (peptide)
peptide: GLIDDKGTIKL
notes: also called GLIDDKGTIKL
B13: altORF-069 (peptide)
peptide: WLMPVMPAL
notes: also called WLMPVMPAL
B14: LARS-001 (peptide)
peptide: SLMEVTHDL
notes: also called SLMEVTHDL
B15: HERVK-003 (peptide)
peptide: TLLSYSIPL
notes: From a human endogenous retrovirus; also called TLLSYSIPL
B16: HERVK-002 (peptide)
peptide: STTIINLIL
notes: From a human endogenous retrovirus; also called STTIINLIL
B17: altORF-004 (peptide)
peptide: ALHDSPVYL
notes: also called ALHDSPVYL
B18: KRT18-001 (peptide)
peptide: KIIEDLANTV
notes: also called KIIEDLANTV
B19: altORF-006 (peptide)
peptide: ILQSLVPAA
notes: also called ILQSLVPAA
B20: altORF-057 (peptide)
peptide: LAASTTFLGV
notes: also called LAASTTFLGV
B21: BSG-001 (peptide)
peptide: ALMDGSESRFFV
notes: also called ALMDGSESRFFV
B22: altORF-067 (peptide)
peptide: LLCPVVLQL
notes: also called LLCPVVLQL
B23: altORF-007 (peptide)
peptide: FLQEGDLISV
notes: also called FLQEGDLISV
B24: altORF-058 (peptide)
peptide: LLLATLENL
notes: also called LLLATLENL
B25: altORF-062 (peptide)
peptide: LLLALRLSL
notes: also called LLLALRLSL

Each binder was assayed against T1, HLA-A*02:01 (human) (assay: UV-ligand exchange + anti-β2m ELISA; exchange yield grade: ≥10% +, ≥20% ++, ≥50 +++, ≥75% ++++).
T1 construct: captured on streptavidin plates, detected with anti-β2m; also called peptide-receptive MHC molecules; MHC class I
Procedure: The individual peptide-MHC complexes were produced by UV-ligand exchange, where a UV-sensitive peptide is cleaved upon UV-irradiation and exchanged with the peptide of interest as analyzed. Only peptide candidates that can effectively bind and stabilize the peptide-receptive MHC molecules prevent dissociation of the MHC complexes. To determine the yield of the exchange reaction, an ELISA was performed based on the detection of the light chain (β2m) of stabilized MHC complexes. The assay was performed as generally described in Rodenko et al. (Rodenko et al., 2006).
96 well MAXISorp plates (NUNC) were coated over night with 2 μg/ml streptavidin in PBS at room temperature, washed 4× and blocked for 1 h at 37° C. in 2% BSA containing blocking buffer. Refolded HLA-A*02:01/MLA-001 monomers served as standards, covering the range of 15-500 ng/ml. Peptide-MHC monomers of the UV-exchange reaction were diluted 100 fold in blocking buffer. Samples were incubated for 1 h at 37° C., washed four times, incubated with 2 μg/ml HRP conjugated anti-β2m for 1 h at 37° C., washed again and detected with TMB solution that is stopped with […]. Absorption was measured at 450 nm. Candidate peptides that show a high exchange yield (preferably higher than 50%, most preferred higher than 75%) are generally preferred for a generation and production of antibodies or fragments thereof, and/or T cell receptors or fragments thereof, as they show sufficient avidity to the MHC molecules and prevent dissociation of the MHC complexes.
B1 gave a peptide exchange yield of 20 to 50%. For B2, the peptide exchange yield was at least 75%. Binder B3 has a peptide exchange yield of at least 75%. Binder B4 has a peptide exchange yield of 20 to 50%. B5 showed a peptide exchange yield of at least 75%. B6 gave a peptide exchange yield of at least 75%. For B7, the peptide exchange yield was at least 75%. B8 was tested, and the peptide exchange yield was at least 75%. Binder B9 has a peptide exchange yield of at least 75%. In the case of B10, the peptide exchange yield is reported as at least 75%. With B11 the peptide exchange yield was 20 to 50%. Binder B12 has a peptide exchange yield of at least 75%. In the case of B13, the peptide exchange yield is reported as at least 75%. B14 was tested, and the peptide exchange yield was at least 75%. With B15 the peptide exchange yield was at least 75%. For B16, the peptide exchange yield was 20 to 50%. With B17 the peptide exchange yield was at least 75%. With B18 the peptide exchange yield was at least 75%. B19 gave a peptide exchange yield of at least 75%. Work on B20 yielded a peptide exchange yield of at least 75%. With B21 the peptide exchange yield was at least 75%. Work on B22 yielded a peptide exchange yield of at least 75%. In the case of B23, the peptide exchange yield is reported as at least 75%. B24 was tested, and the peptide exchange yield was at least 75%. Work on B25 yielded a peptide exchange yield of 10 to 20%.
